± gives the uncertainty stated by the source.
Test: self-splicing fitness, log relative to wild type (ln ratio); higher = more splicing; Tetrahymena group I intron in knt gene, E. coli kanamycin selection, DiMSum; sequences stand for … in CUCUCU…GGAGGGAAAAGUUAUCAGGCAUGCACCUGGUAGCUAGUCUUUAAACCAAUAGAUUGCAUCGGUUUAAAAGGCAAGACCGUCAAAUUGCGGGAAAGGGGUCAACAGCCGUUCAGUACCAAGUCUCAGGGGAAACUUUGAGAUGGCCUUGCAAAGGGUAUGGUAAUAAGCUGACGGACAUGGUCCUAACCACGCAGCCAAGUCCUAAGUCAACAGAUCUUCUGUUGAUAUGGAUGCAGUUCACAGACUAAAUGUCGGUCGGGGAAGAUGUAUUCUUCUCAUAAGAUAUAGUCGGACCUCUCCUUAAUGGGAGCUAGCGGAUGAAGUGAUGCAACACUGGAGCCGCUGGGAACUAAUUUGUAUGCGAAAGUAUAUUGAUUAGUUUUGGAGUACUCGUGGUCG
Procedure, shortened: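 Library with all eight P1ex-region intron nucleotides randomised, intron inside the knt kanamycin-resistance gene on pET-22b(+), in E. coli BL21(DE3). Cells grew overnight at 37°C or 30°C on LB agar with or without 25 μg/mL kanamycin (plus 100 μg/mL carbenicillin, 50 μM IPTG, 0.2% rhamnose), in six replicate transformations. Pooled colonies were amplicon-sequenced on Illumina HiSeq 2500. DiMSum fitness is the error-weighted combination of wild-type-normalised replicate fold changes, kanamycin versus none.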

| Sequence | self-splicing fitness (ln) (30 °C) | self-splicing fitness (ln) (37 °C) |
| --- | --- | --- |
| AAAAAGCAAUAUUACGAACC | -1.53 ± 0.12 | -0.312 ± 0.18 |
| AAAAAGCAAUAUUACGACCC | 0.000517 ± 0.17 | 0.616 ± 0.24 |
| AAAAAGCAAUAUUACGAGCA | -0.699 ± 0.076 | -0.722 ± 0.091 |
| AAAAAGCAAUAUUACGAGCC | -2.31 ± 0.2 | -1.28 ± 0.27 |
| AAAAAGCAAUAUUACGAUUA | -0.462 ± 0.067 | 0.23 ± 0.081 |
| AAAAAGCAAUAUUACGCAAA | -1.15 ± 0.13 | -1.43 ± 0.17 |
| AAAAAGCAAUAUUACGCACC | -1.16 ± 0.14 | -0.602 ± 0.16 |
| AAAAAGCAAUAUUACGCAGC | -1.99 ± 0.13 | -2.19 ± 0.19 |
| AAAAAGCAAUAUUACGCCGG | -1.62 ± 0.11 | 0.057 ± 0.12 |
| AAAAAGCAAUAUUACGCCUC |  | -1.18 ± 0.22 |
| AAAAAGCAAUAUUACGCCUU | -0.374 ± 0.071 | 0.151 ± 0.1 |
| AAAAAGCAAUAUUACGCGCA | -0.39 ± 0.082 | 0.127 ± 0.11 |
| AAAAAGCAAUAUUACGGAAA | -2.24 ± 0.18 | -1.58 ± 0.19 |
| AAAAAGCAAUAUUACGGAGC | -3.4 ± 0.2 | -2.1 ± 0.18 |
| AAAAAGCAAUAUUACGGAUC | -0.895 ± 0.068 | -0.418 ± 0.092 |
| AAAAAGCAAUAUUACGGCAA | -0.286 ± 0.092 | 0.328 ± 0.12 |
| AAAAAGCAAUAUUACGGCGC | -0.402 ± 0.093 | 0.559 ± 0.13 |
| AAAAAGCAAUAUUACGGGCC | -1.8 ± 0.28 | -1.17 ± 0.22 |
| AAAAAGCAAUAUUACGGUCA | -0.0389 ± 0.065 | 0.206 ± 0.082 |
| AAAAAGCAAUAUUACGGUGA | -0.824 ± 0.058 | -0.362 ± 0.064 |
| AAAAAGCAAUAUUACGUACC | -0.981 ± 0.13 | -0.0947 ± 0.14 |
| AAAAAGCAAUAUUACGUCGA | -1.05 ± 0.067 | -0.415 ± 0.082 |
| AAAAAGCAAUAUUACGUCGU | -1.5 ± 0.061 | -0.928 ± 0.078 |
| AAAAAGCAAUAUUACGUUAA | -2.66 ± 0.12 | -1.05 ± 0.093 |
| AAACAGCAAUAUUACGACGG | -3.02 ± 0.092 | -1.13 ± 0.087 |
| AAACAGCAAUAUUACGAGCA | -1.76 ± 0.091 | -1.09 ± 0.082 |

| Sequence | self-splicing fitness (ln) (30 °C) | self-splicing fitness (ln) (37 °C) |
| --- | --- | --- |
| AAACAGCAAUAUUACGAGCG | -1.93 ± 0.079 | -0.668 ± 0.095 |
| AAACAGCAAUAUUACGCAGG | -2.41 ± 0.15 | -2.33 ± 0.15 |
| AAACAGCAAUAUUACGCAUG | -2.12 ± 0.077 | -1.58 ± 0.089 |
| AAACAGCAAUAUUACGCCAG | -4.93 ± 0.39 | -2.11 ± 0.22 |
| AAACAGCAAUAUUACGCCCA | -1.29 ± 0.15 | -0.816 ± 0.15 |
| AAACAGCAAUAUUACGCCCU | -0.534 ± 0.11 | 0.201 ± 0.16 |
| AAACAGCAAUAUUACGCGCG | -1.2 ± 0.067 | -0.673 ± 0.081 |
| AAACAGCAAUAUUACGCUCC | -1.21 ± 0.14 | -0.165 ± 0.13 |
| AAACAGCAAUAUUACGCUCG | -1.11 ± 0.083 | -0.7 ± 0.11 |
| AAACAGCAAUAUUACGCUGC | -4.51 ± 0.19 | -1.81 ± 0.13 |
| AAACAGCAAUAUUACGCUUG | -1.9 ± 0.096 | -0.605 ± 0.098 |
| AAACAGCAAUAUUACGCUUU | -3.11 ± 0.095 | -1.33 ± 0.083 |
| AAACAGCAAUAUUACGGAGA | -2.87 ± 0.15 | -2.57 ± 0.15 |
| AAACAGCAAUAUUACGGUAU | -2.53 ± 0.074 | -1.58 ± 0.088 |
| AAACAGCAAUAUUACGGUCG | -1.07 ± 0.059 | -0.526 ± 0.082 |
| AAACAGCAAUAUUACGGUCU | -0.15 ± 0.059 | -0.161 ± 0.064 |
| AAACAGCAAUAUUACGUAAA | -2.37 ± 0.068 | -1.13 ± 0.074 |
| AAACAGCAAUAUUACGUAAC | -4.39 ± 0.24 | -1.97 ± 0.14 |
| AAACAGCAAUAUUACGUAUA | -3 ± 0.14 | -1.27 ± 0.12 |
| AAACAGCAAUAUUACGUAUU | -2.17 ± 0.089 | -1.53 ± 0.097 |
| AAACAGCAAUAUUACGUGAA | -1.92 ± 0.073 | -0.646 ± 0.072 |
| AAAGAGCAAUAUUACGAAGG | -3.52 ± 0.33 | -2.64 ± 0.41 |
| AAAGAGCAAUAUUACGACCC | -2.42 ± 0.45 |  |
| AAAGAGCAAUAUUACGACGU | -1.63 ± 0.084 | -0.555 ± 0.089 |
| AAAGAGCAAUAUUACGAGUC | -3.41 ± 0.38 | -2.63 ± 0.45 |
| AAAGAGCAAUAUUACGCACG | -2.69 ± 0.23 | -2.22 ± 0.26 |

| Sequence | self-splicing fitness (ln) (30 °C) | self-splicing fitness (ln) (37 °C) |
| --- | --- | --- |
| AAAGAGCAAUAUUACGCCAA | -1.26 ± 0.21 |  |
| AAAGAGCAAUAUUACGCCCA | -2.88 ± 0.32 | -2.02 ± 0.28 |
| AAAGAGCAAUAUUACGCUUA | -2.74 ± 0.31 | -3.02 ± 0.23 |
| AAAGAGCAAUAUUACGGACU | -1.36 ± 0.12 | -1.59 ± 0.16 |
| AAAGAGCAAUAUUACGGCAC | -2.72 ± 0.19 | -2.01 ± 0.21 |
| AAAGAGCAAUAUUACGGGAA | -2.67 ± 0.32 | -2.16 ± 0.28 |
| AAAGAGCAAUAUUACGGGGU | -2.63 ± 0.21 | -2.18 ± 0.24 |
| AAAGAGCAAUAUUACGGUAC | -4.14 ± 0.24 | -2.57 ± 0.2 |
| AAAGAGCAAUAUUACGGUUA | -2.49 ± 0.21 | -2.06 ± 0.18 |
| AAAGAGCAAUAUUACGGUUC |  | -2.82 ± 0.36 |
| AAAGAGCAAUAUUACGUACU | -1.21 ± 0.14 | -0.952 ± 0.15 |
| AAAGAGCAAUAUUACGUCAU | -2.38 ± 0.37 | -2.45 ± 0.35 |
| AAAGAGCAAUAUUACGUCCC | -2.1 ± 0.28 | -1.07 ± 0.35 |
| AAAGAGCAAUAUUACGUGAA | -3.27 ± 0.14 | -2.44 ± 0.16 |
| AAAGAGCAAUAUUACGUGGC | -2.86 ± 0.23 |  |
| AAAGAGCAAUAUUACGUUCC | -3.94 ± 0.31 | -2.49 ± 0.29 |
| AAAUAGCAAUAUUACGAAAG | -3.48 ± 0.18 | -1.6 ± 0.14 |
| AAAUAGCAAUAUUACGAACC | -1.91 ± 0.33 | 1.21 ± 0.28 |
| AAAUAGCAAUAUUACGAACU | 1.11 ± 0.17 | -0.182 ± 0.16 |
| AAAUAGCAAUAUUACGAAGC | -3.18 ± 0.47 |  |
| AAAUAGCAAUAUUACGAUCU | -0.0304 ± 0.11 | 0.867 ± 0.13 |
| AAAUAGCAAUAUUACGAUGC | -2.26 ± 0.31 | -1.65 ± 0.34 |
| AAAUAGCAAUAUUACGCACC | -1.34 ± 0.21 | -0.223 ± 0.23 |
| AAAUAGCAAUAUUACGCACU | 0.478 ± 0.12 | -0.381 ± 0.13 |
| AAAUAGCAAUAUUACGCCAA | -2.54 ± 0.18 | -1.86 ± 0.13 |
| AAAUAGCAAUAUUACGCCCA | -0.102 ± 0.18 | -0.392 ± 0.17 |

— the supplement of paper PMC7877785
